Measured values from patent US20220016215A1, “GIP RECEPTOR AGONIST PEPTIDE COMPOUNDS AND USES THEREOF” (TAKEDA PHAARMACEUTICAL COMPANY LIMITED, priority 2018, published 2022).
Starred links: 1 amine or outer side, 2 acyl side, 3 side chain; linkers in the order of their positions; H or OH if unused. Non-standard residues stand in square brackets, D forms with d. Groups on a side chain read outwards from the residue. No end group written: not given here. *: point of attachment. C15 diacid = O=C(O)CCCCCCCCCCCCCC(=O)*; γGlu = O=C(O)[C@H](CCC(=O)[*:2])N[*:1]; Palmitoyl = CCCCCCCCCCCCCCCC(=O)*; acyl = not defined here; Aib = CC(C)(N)C(=O)O

What was measured:
human GIPR [1] = molecular target: T1, human GIPR (Homo sapiens, UniProt P48546); experiment: Agonist activity on human GIPR, CRE-luciferase reporter assay (increase in intracellular cAMP as indicator); assay type: cell-based; details: for Selectivity Ratio (B/A): GLP1R EC50 / GIPR EC50
T1 construct: expressed in transfected cells
T1 sequence (P48546 22-466): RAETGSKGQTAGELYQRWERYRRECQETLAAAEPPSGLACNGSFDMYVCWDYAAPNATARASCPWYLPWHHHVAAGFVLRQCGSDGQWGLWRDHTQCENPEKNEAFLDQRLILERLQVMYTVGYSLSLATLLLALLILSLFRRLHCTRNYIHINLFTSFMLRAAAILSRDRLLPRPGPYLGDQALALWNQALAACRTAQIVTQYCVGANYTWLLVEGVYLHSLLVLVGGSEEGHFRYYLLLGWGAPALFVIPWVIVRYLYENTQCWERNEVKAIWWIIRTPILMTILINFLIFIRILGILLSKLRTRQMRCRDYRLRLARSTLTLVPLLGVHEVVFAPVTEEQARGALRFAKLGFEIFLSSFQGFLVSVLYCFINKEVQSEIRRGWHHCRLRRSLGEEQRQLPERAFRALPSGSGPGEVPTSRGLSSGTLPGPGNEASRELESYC
Source text: The human GIPR gene having an identical sequence to Genebank Accession No. U39231 is cloned into a pMSRα-neo vector to prepare hGIPR/pMSRα-neo.
(2) Construction of Reporter Plasmid Expressing Cell
Luciferase reporter gene with a cAMP-responsive sequence located upstream is transferred to a CHO-K1 cell to construct a CRE-LUC/CHO-K1 cell.
(4) Transfer of Human GIPR Gene to CRE-LUC/CHO-K1 Cell and Obtaining of Expressing Cell
The plasmid hGIPR/pMSRα-neo obtained in (1) is transferred to the CRE-LUC/CHO-K1 cell obtained in (2) to obtain a transformant. Subsequently, the cell line inducing the luciferase expression, hGIPR/CRE-LUC/CHO-K1 cell, is selected from the obtained transformant by adding GIP.
25 μL each of the hGIPR/CRE-LUC/CHO-K1 cell is inoculated in a 384-well white plate (Corning) in such a way as to provide 5×10^3 cells/well and may be cultured in a HamF12 medium containing 10% fetal bovine serum, 100 U/mL penicillin, and 100 μg/mL streptomycin in a CO2 incubator at 37° C. overnight. 5 μL of a medium containing a test compound is added to the cells and incubated for 4 hours at the indicated concentration in a CO2 incubator at 37° C. Steady-Glo (Promega) is added in amounts of 30 μL and shaken under light shielding. Twenty minutes later, luciferase activity is measured using a plate reader Envision (PerkinElmer). The GIPR agonist activity is calculated with increase in intracellular cAMP concentration as the indicator when the luciferase activity in the presence of 10 nM of GIP was 100% and the luciferase activity in the case of adding DMSO instead of the test compound was 0%.

human GIPR [2] = molecular target: T2, human GIPR (human, UniProt P48546 22-466); experiment: cell-based or functional assay
T2 sequence (looked up): T1 sequence (P48546 22-466)

human GLP-1R = human GLP-1R (human, UniProt P43220 24-463); experiment: cell-based or functional assay

In the case of `CC[C@H](C)[C@H](NC(=O)[C@H](CO)NC(=O)[C@H](Cc1ccc(O)cc1)NC(=O)[C@H](CC(=O)O)NC(=O)[C@H](CO)NC(=O)[C@@H](NC(=O)[C@H](Cc1ccccc1)NC(=O)[C@@H](NC(=O)CNC(=O)[C@H](CCC(=O)O)NC(=O)[C@@H](C)NC(=O)[C@@H](N)Cc1ccc(O)cc1)[C@@H](C)O)[C@@H](C)CC)C(=O)N[C@@H](C)C(=O)N[C@@H](CCSC)C(=O)N[C@@H](CC(=O)O)C(=O)N[C@@H](CCCCN)C(=O)N[C@H](C(=O)N[C@@H](Cc1c[nH]cn1)C(=O)N[C@@H](CCC(N)=O)C(=O)N[C@@H](CCC(N)=O)C(=O)N[C@@H](CC(=O)O)C(=O)N[C@@H](Cc1ccccc1)C(=O)N[C@H](C(=O)N[C@@H](CC(N)=O)C(=O)N[C@@H](Cc1c[nH]c2ccccc12)C(=O)N[C@@H](CC(C)C)C(=O)N[C@@H](CC(C)C)C(=O)N[C@@H](C)C(=O)N[C@@H](CCC(N)=O)C(=O)N[C@@H](CCCCN)C(=O)NCC(=O)N[C@@H](CCCCN)C(=O)N[C@@H](CCCCN)C(=O)N[C@@H](CC(N)=O)C(=O)N[C@@H](CC(=O)O)C(=O)N[C@@H](Cc1c[nH]c2ccccc12)C(=O)N[C@@H](CCCCN)C(=O)N[C@@H](Cc1c[nH]cn1)C(=O)N[C@@H](CC(N)=O)C(=O)N[C@H](C(=O)N[C@H](C(=O)N[C@@H](CCC(N)=O)C(N)=O)[C@@H](C)CC)[C@@H](C)CC)C(C)C)[C@@H](C)CC` [Compound 14], the “Selectivity Ratio (B/A)” value (human GIPR [1]) is reported as >100,000 and the EC50 (human GIPR [1]; hGIPR/CRE-LUC/CHO-K1 cells, 4 h incubation, read-out: GIPR EC50 nM (A)) is reported as 0.001 nM.

In the case of “YAibEGTFISDYS(Lys-(ethylene glycol)2-C15 diacid)ALDKIHQQDFVNWLLAQRG-OH [Compound 32]”, the “Selectivity Ratio (B/A)” value (human GIPR [1]) is reported as 83090.

For “YAibEGTFISDYSIALDKIHQQ(Lys-(ethylene glycol)2-C15 diacid)FVNWLLAQR-NH2 [Compound 28]”, the “Selectivity Ratio (B/A)” value (human GIPR [1]) was >100,000.

For “YAibEGTFISDYSIALDKIHQQ(Lys-(ethylene glycol)2-C15 diacid)FVNWLLAQRG-OH [Compound 24]”, the “Selectivity Ratio (B/A)” value (human GIPR [1]) was 82783.

“YAibEGTFISDYSIALDKIHQQ(Lys-(ethylene glycol)2-C15 diacid)FVNWLLAQRPSSGAPPPS-NH2 [Compound 29]” was tested, and the “Selectivity Ratio (B/A)” value (human GIPR [1]) was >100,000.

For “YAibEGTFISDYSIALDKIHQQDFVNWLLAQ(Lys-(ethylene glycol)2-C15 diacid)G-OH [Compound 31]”, the “Selectivity Ratio (B/A)” value (human GIPR [1]) was 83090.

For “YAibEGTFISDYSIELEK(Lys-(ethylene glycol)2-C15 diacid)AQRAFVEWLLAQGPSSGAPPPS-NH2 [Compound 23]”, the “Selectivity Ratio (B/A)” value (human GIPR [1]) was 3364.

For “YD-AlaEGTFISDYSIAMD(Lys-(OEG-gGlu)2-Oda)IHQQDFVNWLLAQKGKICNDWKHNIIQ-NH2 [Compound 13]”, the “Selectivity Ratio (B/A)” value (human GIPR [1]) was 21,369.

Y[Aib]EGTFTSDYSI[Aib]LDKIAQRAFVQWLIA[Aib]KGKKQEWKHQITQK(acyl)-NH2 (reading uncertain; also: Lys43 acylated, acyl not given here) [Compound No. 16] was tested, and the “GIPR EC50 nM (A)” value (human GIPR [2]) was 0.001 nM, the “GIPR pEC50” value (human GIPR [2]) was 12 and the “GLP1R EC50 nM (B)” value (human GLP-1R) was < 0.02 nM.

Y[dA]EGTFISDYSIAMDKIHQQDFVNWLLAQKGKKNDWKHNIIQ-NH2 [Compound No. 14] was tested, and the “GIPR EC50 nM (A)” value (human GIPR [2]) was 0.001 nM, the “GIPR pEC50” value (human GIPR [2]) was 12.3 and the “GLP1R EC50 nM (B)” value (human GLP-1R) was 933 nM. The “GLP1R pEC50” value (human GLP-1R) was 6.03.

In the case of Y[Aib]EGTFISDYSIALDKK([ethylene glycol-ethylene glycol-C15 diacid])HQQDFVNWLLAQRG-OH [Compound No. 26], the “GIPR EC50 nM (A)” value (human GIPR [2]) is reported as 0.001 nM, the “GLP1R EC50 nM (B)” value (human GLP-1R) is reported as > 1000 nM and the “GLP1R pEC50” value (human GLP-1R) is reported as < 9.

Y[Aib]EGTFISDYSIALDKIK([ethylene glycol-ethylene glycol-C15 diacid])QQDFVNWLLAQRG-OH [Compound No. 25] was tested, and the “GIPR EC50 nM (A)” value (human GIPR [2]) was < 0.001 nM, the “GLP1R EC50 nM (B)” value (human GLP-1R) was > 1000 nM and the “GLP1R pEC50” value (human GLP-1R) was < 8.

For Y[Aib]EGTFISDYSIAMDKK([γGlu-Palmitoyl])HQQDFVNWLLAQKGKKNDWKHNIIQ-OH (not fully specified; also: acyl given as C16DA in synthesis) [Compound No. 5], the “GIPR EC50 nM (A)” value (human GIPR [2]) was 0.001 nM, the “GIPR pEC50” value (human GIPR [2]) was 11.9 and the “Selectivity Ratio (B/A), GLP1R EC50 over GIPR EC50” value (shortened to “Selectivity Ratio (B/A), GLP1R EC50”) (human GIPR [2]) was 93300. The “GLP1R pEC50” value (human GLP-1R) was 7.

Ac-YAEGTFISDYSIAMDKIHQQDFVNWLLAQKGKKNDWKHNIIQ-OH [Compound No. 1] was tested, and the “GIPR EC50 nM (A)” value (human GIPR [2]) was 0.01 nM, the “GIPR pEC50” value (human GIPR [2]) was 11 and the “GLP1R EC50 nM (B)” value (human GLP-1R) was 302 nM. The “GLP1R pEC50” value (human GLP-1R) was 6.5.

For Y[Aib]EGTFISDYSIALDKK([ethylene glycol-ethylene glycol-C15 diacid])HQQDFVNWLLAQR-NH2 [Compound No. 27], the “GIPR EC50 nM (A)” value (human GIPR [2]) was 0.001 nM and the “GLP1R pEC50” value (human GLP-1R) was 6.02.

In the case of YAEGTFISDYSIAMDKIHQQDFVNWLLAQKGKKNDWKHNIIQ (Lys-(palmitoyl acyl fatty acid acyl) at 16; C-terminal -NH2) [Compound No. 3], the “GIPR EC50 nM (A)” value (human GIPR [2]) is reported as 0.331 nM, the “GIPR pEC50” value (human GIPR [2]) is reported as 9.5 and the “GLP1R EC50 nM (B)” value (human GLP-1R) is reported as 148 nM. For the same molecule, the “GLP1R pEC50” value (human GLP-1R) was 6.8.

B1: Compound No. 9 (peptide)
peptide: FXEGTFISDYXIAXDKIHQQDFVNWLLAQKGKKNDWKHNITQ
modifications: Aib at 2; X* = 1-amino,1-cyclopentane carboxylic acid at 11; Nle at 14; C-terminal -OH
For B1, the “GIPR EC50 nM (A)” value (human GIPR [2]) was 0.004 nM, the “GIPR pEC50” value (human GIPR [2]) was 11.4 and the “Selectivity Ratio (B/A), GLP1R EC50” value (human GIPR [2]) was > 100000. The “GLP1R EC50 nM (B)” value (human GLP-1R) was > 1000 nM and the “GLP1R pEC50” value (human GLP-1R) was < 6.

With YXEGTFISDYSIXXDKIHQQDFVNWLLAQKGKKNDWKHNITQ (3,5-diBr-Tyr at 1; Aib at 2; Aib at 13; Nle at 14; C-terminal -OH) [Compound No. 8] the “GIPR pEC50” value (human GIPR [2]) was 10.7, the “Selectivity Ratio (B/A), GLP1R EC50” value (human GIPR [2]) was 5600 and the “GLP1R EC50 nM (B)” value (human GLP-1R) was 118 nM. The “GLP1R pEC50” value (human GLP-1R) was 6.9.
